Source: publication PMC7563236

Biological target: His6-Ku70-tRFP (human) (UniProt P12956)
Assay: SDS-PAGE without heat denaturation, fluorescence in the gel; samples not denatured at 94 °C; bands of His6-Ku70-tRFP seen by tRFP fluorescence

- stoichiometry N: 2
Substance: His6-Ku70-tRFP (from UniProt P12956 1-609) (natural protein)
